Reference: US20260209294A1, “USE OF RECOMBINANT PROTEIN IN PREPARING DRUG FOR INHIBITING ANEURYSM” (HUAZHONG UNIVERSITY OF SCIENCE AND TECHNOLOGY, priority 2022, published 2026)

Legend:
[1] = tested on: aortic aneurysm induced by Fbn1^C1041G/+ mutation; experiment: AGGF1 treatment of spontaneous aortic aneurysm in Fbn1 C1041G/+ mutant mice; format: in vivo
Excerpt: FIG. 13 depicts an AGGF1 treatment for a spontaneous aortic aneurysm in FbnC1041G/+ mutant mice. […] The bar graph on the right illustrates the luminal diameter of the ascending aortic. […] The GAPDH serves as a loading control. […] The bar graphs on the right indicate the percentage of the positive area for the respective immunostaining quantification. *, P<0.05; **, P<0.01; ***, P<0.001; n=8/group for mouse studies, other sample sizes n=4/group.
The present disclosure obtained the previously published Fbn1^C1041G/+ mutant mice from Tongji Hospital. Compared with the wild-type mice, we detected spontaneous aortic expansion in these mice at week 10, resulting in the aortic aneurysm. After obtaining these mice, at week 10, mice were intraperitoneally injected with Buffer or AGGF1 protein, and the injection continued until week 18. At week 18, mice underwent ultrasound examination, then were euthanized and their aortas were collected for Western Blotting experiments and histochemical staining.

[2] = tested on: TGFβ1 signaling pathway in VSMC cells (aortic smooth muscle cells); experiment: VSMC cells treated with AGGF1 protein: Western blot, ELISA, RT-PCR of TGFβ1 signaling; format: cell-based
Description: FIG. 8 depicts that AGGF1 inhibits TGF-β1 and ERK1/2 signaling pathways and a TGF-β1-induced VSMC inflammation. […] Subsequently, cell lysates are collected for the western blot analysis of p-ERK1/2, T-ERK1/2, and p-Smad3. The GAPDH serves as a loading control. […] After 48 hours, the cell lysates are collected for the western blot analysis of p-ERK1/2, T-ERK1/2, and p-Smad3. […] The GAPDH serves as a loading control. […] Subsequently, mRNA is extracted using a Trizol method and reverse transcribed to obtain cDNA for a real-time RT-PCR detection of Il-6, Mcp1, Mmp2, and Mmp9 mRNA levels. […] Subsequently, mRNA is extracted using the Trizol method and reverse transcribed to obtain cDNA. The real-time RT-PCR is performed to analyze the mRNA levels of Il-6, Mcp1, Mmp2, and Mmp9. *, P<0.05; **, P<0.01; ***, P<0.001; n=3/group.
The β-actin serves as a loading control. […] The GAPDH serves as a loading control. […] The mRNA is extracted using the Trizol method and reverse transcribed to obtain cDNA. […] Cells are transfected with different plasmids of LAP-TGF-β1-FLAG and the integrin α7-FLAG, and treated with the purified AGGF1 or AGGF1-RDDdel for 24 hours, with grouping as shown in FIG. K. *, P<0.05; **, P<0.01; ***, P<0.001; n≥3/group.
In vitro experiments were performed using aortic smooth muscle cells and HEK293T cells. As shown in A-C of FIG. 8 and A-F of FIG. 9, whether with recombinant AGGF1 protein, AGGF1-FLAG overexpression, or AGGF1 silencing, Western blot analysis and ELISA experimental results verified that AGGF1 inhibits the TGFβ1 signaling pathway (Smad3 and ERK1/2) and the level of the mature TGFβ1. […] In the Western blot analysis of FIG. 10, it was verified that LAP-TGFβ1 interacts with integrin α7 through the RGD sequence, which is also the molecular mechanism by which integrin α7 inhibits TGFβ1.

[3] = target: T1, integrin α7 / LAP-TGF-β1 interaction (Homo sapiens, UniProt Q13683); experiment: Co-IP of LAP-TGF-β1-GFP and integrin α7-FLAG in HEK293T cells; format: cell-based; details: AGGF1 overexpression or stimulation for 24 hours
T1 construct: FLAG; GFP; expressed in transfected cells; host or cells: HEK293T
T1 sequence (Q13683 34-1181): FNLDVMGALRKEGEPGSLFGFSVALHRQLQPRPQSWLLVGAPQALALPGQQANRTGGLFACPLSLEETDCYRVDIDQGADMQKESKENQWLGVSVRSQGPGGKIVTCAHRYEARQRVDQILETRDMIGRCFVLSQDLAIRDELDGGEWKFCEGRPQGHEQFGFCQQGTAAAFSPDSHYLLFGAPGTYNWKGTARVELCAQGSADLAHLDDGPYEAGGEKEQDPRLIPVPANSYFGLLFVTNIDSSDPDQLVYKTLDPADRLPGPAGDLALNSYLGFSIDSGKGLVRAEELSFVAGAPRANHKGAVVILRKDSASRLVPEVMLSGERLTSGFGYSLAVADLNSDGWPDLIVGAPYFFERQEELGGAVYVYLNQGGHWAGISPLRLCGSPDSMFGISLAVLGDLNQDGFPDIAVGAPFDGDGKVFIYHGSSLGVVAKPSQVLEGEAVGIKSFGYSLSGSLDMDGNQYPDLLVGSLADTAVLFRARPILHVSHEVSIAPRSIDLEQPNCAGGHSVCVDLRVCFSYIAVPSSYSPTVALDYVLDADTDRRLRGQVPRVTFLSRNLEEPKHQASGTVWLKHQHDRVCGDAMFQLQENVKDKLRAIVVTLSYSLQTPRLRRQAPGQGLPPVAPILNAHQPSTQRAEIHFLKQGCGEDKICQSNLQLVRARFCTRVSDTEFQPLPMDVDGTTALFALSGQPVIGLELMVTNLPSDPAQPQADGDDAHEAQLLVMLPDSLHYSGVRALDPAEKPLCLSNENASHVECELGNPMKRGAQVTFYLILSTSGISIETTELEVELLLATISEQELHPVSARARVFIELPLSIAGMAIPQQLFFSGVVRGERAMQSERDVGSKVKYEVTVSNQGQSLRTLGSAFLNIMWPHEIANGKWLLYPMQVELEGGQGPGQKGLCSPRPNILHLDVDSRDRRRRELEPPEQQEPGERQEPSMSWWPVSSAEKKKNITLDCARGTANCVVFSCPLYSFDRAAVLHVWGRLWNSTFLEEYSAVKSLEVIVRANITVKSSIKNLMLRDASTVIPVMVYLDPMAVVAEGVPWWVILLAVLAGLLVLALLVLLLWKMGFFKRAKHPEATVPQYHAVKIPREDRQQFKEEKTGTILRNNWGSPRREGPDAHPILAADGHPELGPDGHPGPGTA
T1 sequence (P05556 21-798 partner): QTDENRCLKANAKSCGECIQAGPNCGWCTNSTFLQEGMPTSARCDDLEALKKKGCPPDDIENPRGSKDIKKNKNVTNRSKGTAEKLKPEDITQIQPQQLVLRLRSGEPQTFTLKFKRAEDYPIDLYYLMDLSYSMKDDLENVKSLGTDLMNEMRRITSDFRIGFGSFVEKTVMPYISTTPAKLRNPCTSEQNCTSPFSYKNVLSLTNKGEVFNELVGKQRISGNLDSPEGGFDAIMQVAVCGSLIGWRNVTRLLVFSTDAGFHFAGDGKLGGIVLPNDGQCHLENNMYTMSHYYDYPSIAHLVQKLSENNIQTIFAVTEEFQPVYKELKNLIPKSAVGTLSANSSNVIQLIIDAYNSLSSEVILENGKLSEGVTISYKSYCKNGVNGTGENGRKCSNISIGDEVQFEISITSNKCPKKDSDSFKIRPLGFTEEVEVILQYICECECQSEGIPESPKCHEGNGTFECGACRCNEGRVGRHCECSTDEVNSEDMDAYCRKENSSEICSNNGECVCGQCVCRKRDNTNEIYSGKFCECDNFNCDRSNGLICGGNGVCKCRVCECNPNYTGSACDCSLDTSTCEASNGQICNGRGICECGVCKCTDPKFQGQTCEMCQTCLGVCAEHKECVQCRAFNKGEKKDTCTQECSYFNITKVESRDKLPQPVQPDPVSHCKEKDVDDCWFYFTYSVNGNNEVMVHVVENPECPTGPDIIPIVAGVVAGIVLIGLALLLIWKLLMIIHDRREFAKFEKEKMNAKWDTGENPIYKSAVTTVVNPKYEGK
Excerpt: FIG. 10 illustrates that the integrin α7 interacts with LAP-TGF-β1 via an RGD sequence, and AGGF1 enhances this interaction. […] Quantitative data of a LAP-TGF-β1-GFP/α7-FLAG ratio are plotted as bar graphs on the right. […] Quantitative data of the LAP-TGF-β1-GFP/α7-FLAG ratio are plotted as bar graphs on the right. *, P<0.05; **, P<0.01; ***, P<0.001; n=3/group.

B1: AGGF1 protein: recombinant human AGGF1 protein with His tag, SEQ ID NO:1, expressed from pet28-AGGF1 in Escherichia coli BL21 (DE3) (protein, listed as Homo sapiens)
chain: MASEAPSPPRSPPPPTSPEPELAQLRRKVEKLERELRSCKRQVREIEKLLHHTERLYQNAESNNQELRTQVEELSKILQRGRNEDNKKSDVEVQTENHAPWSISDYFYQTYYNDVSLPNKVTELSDQQDQAIETSILNSKDHLQVENDAYPGTDRTENVKYRQVDHFASNSQEPASALATEDTSLEGSSLAESLRAAAEAAVSQTGFSYDENTGLYFDHSTGFYYDSENQLYYDPSTGIYYYCDVESGRYQFHSRVDLQPYPTSSTKQSKDKKLKKKRKDPDSSATNEEKDLNSEDQKAFSVEHTSCNEEENFANMKKKAKIGIHHKNSPPKVTVPTSGNTIESPLHENISNSTSFKDEKIMETDSEPEEGEITDSQTEDSYDEAITSEGNVTAEDSEDEDEDKIWPPCIRVIVIRSPVLQIGSLFIITAVNPATIGREKDMEHTLRIPEVGVSKFHAEIYFDHDLQSYVLVDQGSQNGTIVNGKQILQPKTKCDPYVLEHGDEVKIGETVLSFHIHPGSDTCDGCEPGQVRAHLRLDKKDESFVGPTLSKEEKELERRKELKKIRVKYGLQNTEYEDEKTLKNPKYKDRAGKRREQVGSEGTFQRDDAPASVHSEITDSNKGRKMLEKMGWKKGEGLGKDGGGMKTPIQLQLRRTHAGLGTGKPSSFEDVHLLQNKNKKNWDKARERFTENFPETKPQKDDPGTMPWVKGTLE
modifications: His tag
B1 was tested, and the “expansion of the ascending aorta” value ([1]; i.p. from week 10 to week 18, ultrasound at week 18) was “significantly inhibit”, the “increase in αSMA/CD68/MCP1 levels (immunostaining positive areas)” value ([1]; week 18) was “significantly inhibit” and the “level of mature TGFβ1 (Western blot, ascending aorta)” value ([1]; week 18) was “inhibited”. For the same molecule, the “p-ERK (Western blot, ascending aorta)” value ([1]; week 18) was “inhibited”, the “p-Smad2 (Western blot, ascending aorta)” value ([1]; week 18) was “inhibited” and the “p-Smad3 (Western blot, ascending aorta)” value ([1]; week 18) was “inhibited”. The “thickening of the vascular media” value ([1]; week 18) was “significantly inhibit”, the “TGFβ1-induced inflammation (Il6, Mcp1, Mmp2, Mmp9)” value ([2]; RT-PCR, TGF-β1 24 hours then AGGF1 24 hours) was “inhibit” and the “level of the mature TGFβ1” value ([2]; Western blot and ELISA, protein treatment 48 hours) was “inhibits”. The “TGFβ1 signaling pathway (Smad3 and ERK1/2)” value ([2]; Western blot, TGF-β1 15 minutes then AGGF1 10 minutes) was “inhibits” and the “interaction of integrin α7 with LAP-TGF-β1 (LAP-TGF-β1-GFP/α7-FLAG ratio)” value [3] was “enhances”.
